Results: EP4786493A1 (Nanjing Probio Biotech Co., Ltd., dated 2026)

Legend:
[1] = target: T1, human Claudin 18.2 expressed on cells (HEK293/human Claudin 18.2; CHO-K1/human Claudin 18.2) (human, UniProt P56856-2 1-261); assay: cell-based or functional assay
[2] = target: T2, recombinant human Claudin 18.2 protein (GenScript, Z03504) (human, UniProt P56856-2 1-261, limits assumed); assay: competition ELISA on coated recombinant human Claudin 18.2; competitor biotinylated IMAB362 (0.72 µg/ml)
T2 construct: Bought recombinant protein

[3] = target: T2, recombinant human Claudin 18.2 protein …; assay: indirect ELISA, plate coated with recombinant human Claudin 18.2, anti-human IgG Fc-HRP detection
[4] = target: T1, human Claudin 18.2 expressed on cells …; assay: cell-based or functional assay; remark: listed apart in the source
[5] = target: T2, recombinant human Claudin 18.2 protein …; assay: SPR Biacore 8K, antibody captured via Fc, human Claudin 18.2 protein as analyte
[6] = target: T1, human Claudin 18.2 expressed on cells …; assay: flow cytometry on HEK293 cells expressing human Claudin 18.2

B1: AHP30826 (antibody, V domains shown)
VH: QVQLQQSGGGSVQAGGSLRLSCAASGTILSINAMGWYRQAPGKQRELVATITTGGNANYAHSVKGRFTISRDNAKNTVYLQMNNLKPEDTAVYYCNAEQVVVGFLQAYDVWGQGTTVTVSS
VL: DVVMTQSPLSLPVTLGQAASISCRSSQSLVHGDGNTYLNWIQQRPGQSPRRLIYKVSNRDSGVPDRFSGSGSGTDFTLKISRVEAEDVGVYYCMQGTHWPSTFGPGTKVDIK
B1 was tested, and the “CDC on CHO-K1/human Claudin 18.2 cells: Top” value (“CDC” for short) [1] was 96%, the IC50 [2] was 0.276 nM and the EC50 [3] was 0.0914 nM. The “ADCC reporter gene assay (CHO-K1/Claudin 18.2 target cells, GS-J2C/CD16A 158V effector cells): EC50” value (shortened to “ADCC reporter gene assay … EC50”) [4] was 0.684 nM, the “ADCC reporter gene assay (CHO-K1/Claudin 18.2 target cells, GS-J2C/CD16A 158V effector cells): Top” value (“ADCC reporter gene assay … Top” below) [4] was 222000 and the Kd [5] was 7.82 nM. It also gave an EC50 [6] of 3.54 nM.

B2: AHP32919 (antibody, V domains shown)
VH: QVQLQESGGGVVQPGGSLRLSCAASQSIGLLSTMGWYRQAAGKQRELVATITRGGSTNYGEFVKGRFTISRDNAKNTVYLQMNSLKPEDTAVYYCTADESWLGTQSYWGRGTRVTVSS
VL: QAGLTQPPSASGTPGQGVTISCSGSSSNIGSNSVNWYQQLPGTAPKLLMHSNNERSSGVPDRFSGSKSGSSASLAISGLQSEDAADYFCGAWDDSLNGYVFGTGTKLTVL
B2 was tested, and the “CDC” value [1] was 96.3%, the IC50 [2] was 0.271 nM and the EC50 [3] was 0.0788 nM. The “ADCC reporter gene assay … EC50” value [4] was about 0.439 nM, the “ADCC reporter gene assay … Top” value [4] was 199000 and the Kd [5] was 7.91 nM. The EC50 [6] was 6.04 nM.

B3: AHP33029 (antibody, V domains shown)
VH: QVQLVDSGGGLVQSGGSLRLTCAASQSIGLLSTMGWYRQAAGKQRELVATITRGGSTNYGEFVKGRFTISRDNAKNTVYLQMNSLKPEDTAVYYCTADESWLGTQSYWGRGTLVTVSS
VL: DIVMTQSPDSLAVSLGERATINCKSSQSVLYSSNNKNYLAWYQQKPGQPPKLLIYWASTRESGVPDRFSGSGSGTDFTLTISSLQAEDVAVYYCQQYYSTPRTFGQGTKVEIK
B3 was tested, and the “CDC” value [1] was 96.9%, the IC50 [2] was 0.319 nM and the EC50 [3] was 0.0746 nM. The “ADCC reporter gene assay … EC50” value [4] was 3.73 nM, the “ADCC reporter gene assay … Top” value [4] was 358000 and the Kd [5] was 10.2 nM. It also gave an EC50 [6] of 4.24 nM.

B4: AHP29153 (antibody, V domains shown)
VH: QLQQVESGGGLVQPGGSLRLSCAASRNIGILSTMGWYRQAPGKQRELVATITRGGSTNYGEFVKGRFTISRDNAKNTVYLQMNSLKPEDTAVYYCNVDESWLGTQSYWGRGTTVTVSS
VL: QSVLTQPASVSGSPGQSITISCTGTSSDVGGYKYVSWYQQPPGKAPKLIIYEVTKRPSGVPDRFSGSKSGNTASLTVSGLQAEDEADYYCLSYAGSNNVFGTGTKLTVL
For B4, the “CDC” value [1] was 96.3%, the IC50 [2] was 0.323 nM and the EC50 [3] was 0.125 nM. The “ADCC reporter gene assay … EC50” value [4] was 0.805 nM, the “ADCC reporter gene assay … Top” value [4] was 283000 and the Kd [5] was 9.96 nM. It also gave an EC50 [6] of 8.15 nM.

B5: AHP31548 (antibody, V domains shown)
VH: QVQLMQSGGGLVQPGGSLRLSCAASRNIGILSTMGWYRQAPGKQRELVATITRGGSTNYGEFVKGRFTISRDNAKNTVYLQMNSLKPEDTAVYYCNVDESWLGTQSYWGRGTTVTVSS
VL: QSALTQPPSASGSPGQSVTISCTGTSSDIGTYNFVSWYQQHPGKAPKLIIYEVSKRPSGVPDRFSGSKSGNTASLTVSGLQAEDEADYYCKSYPRVFGTGTKLTAL
For B5, the “CDC” value [1] was 94%, the IC50 [2] was 0.265 nM and the EC50 [3] was 0.074 nM. For the same binder, the “ADCC reporter gene assay … EC50” value [4] was 2.15 nM, the “ADCC reporter gene assay … Top” value [4] was 463000 and the Kd [5] was 7.31 nM. For the same binder, the EC50 [6] was 3.08 nM.

B6: AHP33007 (antibody, V domains shown)
VH: QVQLVQSGGGLVQPGGSLRLSCAASRNIGILSTMGWYRQAPGKQRELVATITRGGSTNYGEFVKGRFTISRDNAKNTVYLQMNSLKPEDTAVYYCNVDESWLGTQSYWGRGPLVTVSS
VL: not shown
In the case of B6, the “CDC” value [1] is reported as 92.7%, the IC50 [2] is reported as 0.805 nM and the EC50 [3] is reported as 0.139 nM. For the same binder, the “ADCC reporter gene assay … EC50” value [4] was 1.84 nM, the “ADCC reporter gene assay … Top” value [4] was 295000 and the Kd [5] was 2.7 nM. For the same binder, the EC50 [6] was 12.4 nM.

B7: AHP32913 (antibody, V domains shown)
VH: QVQLMQSGGGLVQPGGSLRLSCAASRNIGILSTMGWYRQAPGKQRELVATITRGGSTNYGEFVKGRFTISRDNAKNTVYLQMNSLKPEDTAVYYCNVDESWLGTQSYWGRGTQVTVSS
VL: QAVVTQEPSLTVSPGGTVTLTCGSSTGPVTSGHYPHWYQQKPGQAPKTLIFDTSHKHPWTPAQFSGSLLGGKAALTLSGAHPEDEAEYYCLLSYSGVRVFGGGTQLIIL
For B7, the “CDC” value [1] was 93%, the IC50 [2] was 0.337 nM and the EC50 [3] was 0.111 nM. For the same binder, the “ADCC reporter gene assay … EC50” value [4] was 8.12 nM, the “ADCC reporter gene assay … Top” value [4] was 486000 and the Kd [5] was 9.44 nM. It also gave an EC50 [6] of 4.16 nM.

B8: AHP32982 (antibody, V domains shown)
VH: QVQLVQSGGGLVQPGGSLRLSCAASRNIGILSTMGWYRQAPGKQRELVATITRGGSTNYGEFVKGRFTISRDNAKNTVYLQMNSLKPEDTAVYYCNVDESWLGTQSYWGRGPLVTVSS
VL: DIVMTQSPSSVSASVGDRVTITCRASQGISSWLAWYQQKPGKAPKLLIYAASSLQSGVPSRFSGSGSGTDFTLTISSLQPEDFATYYCQQANSFPLTFGGGTKVEIK
B8 was tested, and the “CDC” value [1] was 95.5%, the IC50 [2] was 0.491 nM and the EC50 [3] was 0.119 nM. For the same binder, the “ADCC reporter gene assay … EC50” value [4] was 0.379 nM, the “ADCC reporter gene assay … Top” value [4] was 216000 and the Kd [5] was 13.3 nM. The EC50 [6] was 5.91 nM.
